Test results reported in ChEMBL document CHEMBL1132182, “2,6-Difluorophenol as a bioisostere of a carboxylic acid: bioisosteric analogues of gamma-aminobutyric acid” (J Med Chem, 1999).

Tested on: NCCCC(=O)O
Description: Michaelis-Menten constant of the compound.

4-aminobutyrate aminotransferase, mitochondrial (Sus scrofa), P80147, sequence (P80147 whole entry): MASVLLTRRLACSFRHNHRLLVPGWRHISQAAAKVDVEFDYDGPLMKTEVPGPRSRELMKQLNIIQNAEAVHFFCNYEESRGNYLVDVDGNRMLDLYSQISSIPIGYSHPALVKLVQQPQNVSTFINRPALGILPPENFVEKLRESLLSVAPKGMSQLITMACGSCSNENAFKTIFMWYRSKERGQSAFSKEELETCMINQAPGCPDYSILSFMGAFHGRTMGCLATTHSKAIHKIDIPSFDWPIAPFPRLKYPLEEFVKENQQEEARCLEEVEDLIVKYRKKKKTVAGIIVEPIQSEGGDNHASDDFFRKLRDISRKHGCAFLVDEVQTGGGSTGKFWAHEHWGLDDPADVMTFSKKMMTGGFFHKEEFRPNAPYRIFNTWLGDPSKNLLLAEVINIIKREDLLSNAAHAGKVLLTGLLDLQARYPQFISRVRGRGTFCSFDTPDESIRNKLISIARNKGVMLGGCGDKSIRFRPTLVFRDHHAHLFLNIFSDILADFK

Substance: 4-aminobutyrate aminotransferase, mitochondrial (Sus scrofa), P80147
- Km: 2500 µM
